From patent US20220064286A1 (Genentech, published 2022)
Changes are numbered by the printed parent chain. Numbers in names are those of the source.

Legend:
[1] = molecular target: T1, cynomolgus TIGIT on CHO cells (cynomolgus monkey, UniProt A0A7N9I9V4 89-312); test: FACS blocking assay: labelled PVR-Fc (blocked ligand; text: cyPVR, scheme of FIG. 4A prints hPVR.Fc) on CHO cells expressing cyno TIGIT
T1 construct: whole, on cells; also called CHO-cyTIGIT; cyTIGIT
Procedure: (§1) These studies were further validated in CHO-TIGIT PVR blocking experiments in which TIGIT-expressing CHO cells were incubated with labeled PVR-Fc fusion protein in the presence of anti-TIGIT antibody or an human IgG1 control (FIG. 4A).

[2] = molecular target: T2, human TIGIT on activated human primary T cells (human, UniProt Q495A1 22-244); test: FACS, activated human T cells
T2 construct: also called Human T cell
T2 sequence: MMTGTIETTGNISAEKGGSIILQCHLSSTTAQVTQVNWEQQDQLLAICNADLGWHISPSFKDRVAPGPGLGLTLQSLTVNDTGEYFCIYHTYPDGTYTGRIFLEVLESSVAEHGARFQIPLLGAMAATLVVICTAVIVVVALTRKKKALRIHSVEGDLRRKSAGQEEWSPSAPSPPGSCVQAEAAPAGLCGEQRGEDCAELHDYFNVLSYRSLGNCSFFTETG
Procedure: The OMT- and SD-derived anti-TIGIT clones were also tested for binding to human primary T cells by FACS analysis. Human PBMC were activated for with plate-bound anti-CD3 (5 μg/ml) and soluble anti-CD28 (2 μg/ml) for 2 days as described in Yu et al. Nature Immunology. 10: 48-57, 2009, which is incorporated herein by reference in its entirety. Cells were then washed and incubated with incubated with each anti-TIGIT antibody at the indicated concentrations and then detected via a FITC-labeled anti-hIgG antibody. Cells were also stained with anti-CD4, anti-CD8, and anti-CD25 (BD bioscience). Human CD4+(CD25+CD4+) and human CD8+(CD25+CD8+) T cells were assessed for binding by the anti-TIGIT clones by FACS. All samples were acquired on LSR-II or LSR-Fortessa instruments (BD Biosciences) and analyzed using FlowJo software (Treestar).

[3] = molecular target: T3, full-length human TIGIT on CHO cells (human, UniProt Q495A1 22-244); test: FACS, CHO cells expressing TIGIT
T3 construct: also called CHO-hTIGIT; hu TIGIT
T3 sequence: T2 sequence

[4] = molecular target: T4, HA-tagged TIGIT (human, UniProt Q495A1 22-244); test: TR-FRET, HA-TIGIT with ST-CD226 on CHO cells; competitor CD226
T4 sequence: T2 sequence
Excerpt: To test for the ability of the clones to block the TIGIT-CD226 interaction, TR-FRET (Time-resolved Fluorescence Resonance Energy Transfer) was used. First, human SNAP-tagged (ST) CD226 with non-permeant donor and acceptor fluorophores was expressed and labeled using CHO cells. The human ST-CD226 was co-expressed with HA-tagged TIGIT, in the presence or the absence of the OMT- and SD-derived anti-TIGIT antibody clones.

[5] = molecular target: T5, cynomolgus TIGIT-AviFlag-biotin (cynomolgus monkey, UniProt A0A7N9I9V4 89-209, biotin); test: Block ELISA Cyno PVR-Fc:Bio-TIGIT-AviFlag (blocked ligand cyno PVR-Fc)
T5 construct: also called cyno TIGIT-AviFlag-biotin
T5 sequence (A0A7N9I9V4 entry or part of it): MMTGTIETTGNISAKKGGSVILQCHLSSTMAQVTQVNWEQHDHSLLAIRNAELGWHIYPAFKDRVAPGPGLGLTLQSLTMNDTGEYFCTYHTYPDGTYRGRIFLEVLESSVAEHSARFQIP
Procedure: To test for the ability of the clones to block the TIGIT-PVR interaction, a blocking ELISA assay was used. Briefly, recombinant human PVR-Fc fusion protein, cynomolgus monkey PVR-Fc fusion protein, or mouse PVR-Fc fusion protein was coated at 4 μg/ml at 25 μl/well in phosphate-buffered saline (PBS, pH 7.0) onto 384-well Maxisorp microtiter plates (NUNC, Denmark) and incubated overnight at 4° C. The coating solution was then discarded and the plate was blocked using 0.5% bovine serum albumin (BSA) in PBS at 80 μl/well and incubated with gentle agitation for 1 hour. Titration curves of anti-TIGIT and Fab isotype control antibodies were diluted in assay buffer (PBS, 0.5% BSA, 0.05% Tween 20) using 12 serial 2.5-fold dilutions (40000-1.7 ng/mL). […] The plate was then washed 6× with wash buffer and bound human TIGIT-AviFlag-biotin, cyno TIGIT-AviFlag-biotin, or mouse TIGIT-His was detected by adding 25 μl/well of horseradish peroxidase-conjugated streptavidin (1:10000, Amersham, UK) or horseradish peroxidase-conjugated mouse anti-His (1:2500, Qiagen, Germany) diluted in assay buffer. […] Absorbance was read at 450 nm on a […] ASCENT® microtiter plate reader (Thermo Labsystems, Helsinki, Finland). Fit curves were plotted from the resulting optical density values from the ELISA plates and IC50s were calculated using Genedata Screener software (Genedata, Switzerland).

[6] = molecular target: T6, mu TIGIT (target named for 10A7 in the heads of Tables 6 and 7) (mu (mouse), UniProt P86176 29-249, limits assumed); test: FACS, PVR-Fc on CHO-TIGIT cells; competitor PVR-Fc
T6 construct: Only the column head says mu TIGIT; the text describes no mouse TIGIT cells
T6 sequence (looked up): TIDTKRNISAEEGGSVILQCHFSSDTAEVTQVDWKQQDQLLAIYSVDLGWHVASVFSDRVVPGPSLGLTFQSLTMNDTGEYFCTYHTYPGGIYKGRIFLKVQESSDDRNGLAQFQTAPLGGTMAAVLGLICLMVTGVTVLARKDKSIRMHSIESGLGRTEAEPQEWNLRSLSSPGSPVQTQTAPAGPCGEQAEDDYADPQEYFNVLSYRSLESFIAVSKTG
Procedure: as §1

[7] = molecular target: T6, mu TIGIT (target named for 10A7 in the …); test: FACS, T cell binding (row: Human T cell; column head: mu TIGIT)
In short: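 Activated human peripheral blood T cells were stained with each anti-TIGIT antibody and analysed by flow cytometry. Binding was detected with a FITC-labelled anti-human IgG, gated on CD25+CD4+ and CD25+CD8+ cells (LSR-II or LSR-Fortessa, FlowJo). EC50 values come from these titrations.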

T1 sequence (A0A7N9I9V4 entry or part of it): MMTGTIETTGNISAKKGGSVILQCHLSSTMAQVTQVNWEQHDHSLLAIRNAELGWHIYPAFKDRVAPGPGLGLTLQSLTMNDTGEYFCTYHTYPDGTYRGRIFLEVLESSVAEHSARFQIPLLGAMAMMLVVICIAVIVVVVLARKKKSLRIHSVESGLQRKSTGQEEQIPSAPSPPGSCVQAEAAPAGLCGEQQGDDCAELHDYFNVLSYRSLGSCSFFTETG

B1: 4.1D3 (antibody, V domains shown)
VH: QVQLQQSGPGLVKPSQTLSLTCAISGDSVSSNSAAWNWIRQSPSRGLEWLGKTYYRFKWYSDYAVSVKGRITINPDTSKNQFSLQLNSVTPEDTAVFYCTRESTTYDLLAGPFDYWGQGTLVTVSS
VL: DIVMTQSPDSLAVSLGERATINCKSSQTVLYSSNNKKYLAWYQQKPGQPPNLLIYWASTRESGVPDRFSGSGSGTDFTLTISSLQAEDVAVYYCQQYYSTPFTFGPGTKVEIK
notes: OMT rat-derived human antibody; also called 4.1D3.Q1
- IC50 (read off the curve) [1]: ~0.6 nM

B2: 4.1D3.Q1E (antibody, V domains shown)
VH: B1 VH with Q1E
VL: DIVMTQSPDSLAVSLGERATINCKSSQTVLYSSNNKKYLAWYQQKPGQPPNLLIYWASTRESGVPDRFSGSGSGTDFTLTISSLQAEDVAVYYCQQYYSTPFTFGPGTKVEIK
- EC50 [2]: 1.36 nM
- EC50 [3]: 1.04 nM
- IC50 [4]: 45 nM
- IC50 [5]: 2.6 nM

B3: 7.4A3.C96S.Q1E (antibody, V domains shown)
VH: EVQLVQSGSDLKKPGASVRVSCKASGYTFTSYPMNWVRQAPGHGLEWMGWINTNTGNPTYVQGFTGRFVFSLDTSVNTAYLQISSLKAEDTAVYFCARTGGHTYDSYAFDVWGQGTMVTVSS
VL: DIQLTQSPTFLSASVGDRVTITCRASQVISSSLAWYQQNPGKAPKLLIYAASTLQSGVPSRFSGSGSGTEFTLTISSLQPEDFVTYYCQHLHGYPSNFGQGTKVEIK
notes: also called 7.4A3.Q1E.C96S
- EC50 [2]: 2.63 nM
- EC50 [3]: 3.04 nM
- IC50 [4]: 19.3 nM
- IC50 (read off the curve) [1]: ~0.3 nM

B4: 10A7 (antibody, V domains shown)
VH: EVQLVESGGGLTQPGKSLKLSCEASGFTFSSFTMHWVRQSPGKGLEWVAFIRSGSGIVFYADAVRGRFTISRDNAKNLLFLQMNDLKSEDTAMYYCARRPLGHNTFDSWGQGTLVTVSS
VL: DIVMTQSPSSLAVSPGEKVTMTCKSSQSLYYSGVKENLLAWYQQKPGQSPKLLIYYASIRFTGVPDRFTGSGSGTDYTLTITSVQAEDMGQYFCQQGINNPLTFGDGTKLEIKR
- IC50 [6]: 0.07 nM
- EC50 [7]: 0.63 nM
